Assays:
Human EGFR-Fc (human) [1] = target: Human EGFR-Fc (human) (UniProt P00533); assay: yeast surface display titration with human EGFR (panel Yeast display: HuL6-7D12)
Mouse EGFR-Fc (mouse) [2] = target: Mouse EGFR-Fc (mouse) (UniProt Q01279); assay: SPR (Biacore), 25 °C
Mouse EGFR-Fc (mouse) [3] = target: Mouse EGFR-Fc (mouse) (UniProt Q01279); assay: SPR, 25 °C
[4] = target: human EGFR-Fc mutant (L325V, S340A) (human) (UniProt P00533); assay: SPR (Biacore), 37 °C
Mouse EGFR-Fc (mouse) [5] = target: Mouse EGFR-Fc (mouse) (UniProt Q01279); assay: SPR, murine EGFR-Fc
Mouse EGFR-Fc (mouse) [6] = target: Mouse EGFR-Fc (mouse) (UniProt Q01279); assay: SPR, murine EGFR-Fc; bracket from the bars of 7D12 and 9G8 to this bar
[7] = target: human EGFR-Fc mutant (L325V, S340A) (human) (UniProt P00533); assay: SPR, human EGFR-Fc (L325V, S340A)
Human EGFR-Fc (human) [8] = target: Human EGFR-Fc (human) (UniProt P00533); assay: SPR (Biacore), 37 °C

Substance 7D12 (VHH) has a Kd (Human EGFR-Fc (human) [1]) of 2.1 nM, a Kd (Mouse EGFR-Fc (mouse) [2]) of 7200 nM and a Kd (Mouse EGFR-Fc (mouse) [3]) of 7200 nM. The Kd [4] was 210 nM.

7D12-(AP)12-9G8 showed a Kd (Mouse EGFR-Fc (mouse) [5]) of 192 nM, a k' (Mouse EGFR-Fc (mouse) [6]) of 950000 and a Kd [7] of 0.6 nM.

Work on 7D12-(AP)12-VSG-[-AA]9G8 yielded a Kd (Mouse EGFR-Fc (mouse) [5]) of 0.7 nM and a Kd [7] of 0.04 nM.

In the case of 7D12-(E4K4)5-9G8, the Kd (Mouse EGFR-Fc (mouse) [5]) is reported as 621 nM and the Kd [7] is reported as 2 nM.

With 7D12-(EAAAK)8-9G8 the Kd (Mouse EGFR-Fc (mouse) [5]) was 194 nM.

7D12-(EAAAK)8-VSG-[-AA]9G8 gave a Kd (Mouse EGFR-Fc (mouse) [5]) of 1.2 nM.

In the case of 7D12-(GGGS)3-9G8, the Kd (Mouse EGFR-Fc (mouse) [5]) is reported as 162 nM.

7D12-FFH-(EAAAK)6-GGG-[-AA]9G8 showed a Kd (Mouse EGFR-Fc (mouse) [5]) of 8.8 nM.

7D12-KGR-(EAAAK)8-AGG-[-AA]9G8 was tested, and the Kd (Mouse EGFR-Fc (mouse) [5]) was 17 nM.

7D12-SSV-(E4K4)4-GPG-[-AA]9G8 gave a Kd (Mouse EGFR-Fc (mouse) [5]) of 3.1 nM.

With 7D12-WMV-(GGGS)6-VTG-[-AA]9G8 the Kd (Mouse EGFR-Fc (mouse) [5]) was 1.2 nM and the Kd [7] was 0.04 nM.

9G8 (VHH) gave a Kd (Human EGFR-Fc (human) [8]) of 3.8 nM and a Kd [4] of 13 nM.

Source: US20250199010A1
